# Measured values taken from FireProtDB (doi:10.1006/jmbi.1999.2852).
# Conditions: Pseudomonas aeruginosa (strain ATCC 15692 / DSM 22644 / CIP 104116 / JCM 14847 / LMG 12228 / 1C / PRS 101 / PAO1), 10 °C, GdnHCl, Fluorescence, reversible: yes (100%), whole UniProt chain shown
# [1] = pH 4, phosphate/acetate 25 mM/25 mM/
# [2] = pH 4.7, phosphate/acetate 25 mM/25 mM/
protein,measurement,setting,value
"Cytochrome c-551 wild type, P00099 (protein) MKPYALLSLLATGTLLAQGAWAEDPEVLFKNKGCVACHAIDTKMVGPAYKDVAAKFAGQAGAEAELAQRIKNGSQGVWGPIPMPPNAVSDDEAQTLAKWVLSQK",denaturant m value,"pH 3, citrate 15 mM",3.3 kcal/mol/M
same,denaturant midpoint (higher = more stable),"pH 3, citrate 15 mM",1 M
same,unfolding free energy,"pH 3, citrate 15 mM",3.3 kcal/mol
same,denaturant m value,[1],2.8 kcal/mol/M
same,denaturant midpoint (higher = more stable),[1],2.1 M
same,unfolding free energy,[1],5.9 kcal/mol
same,denaturant m value,[2],3.1 kcal/mol/M
same,denaturant midpoint (higher = more stable),[2],2.1 M
same,unfolding free energy,[2],6.6 kcal/mol
same,denaturant m value,"pH 7, Sodium phosphate 50 mM",3.3 kcal/mol/M
same,denaturant midpoint (higher = more stable),"pH 7, Sodium phosphate 50 mM",1.8 M
same,unfolding free energy,"pH 7, Sodium phosphate 50 mM",6 kcal/mol
